These results are taken from patent US20250115669A1, “FGFR1/KLB Targeting Agonistic Antigen-Binding Proteins and Conjugates Thereof with GLP-1R Agonistic Peptides” (SANOFI, priority 2020, published 2025).

Changes are numbered by the printed parent chain. In names and notes the source's numbering stands.

T1: human beta-Klotho (Homo sapiens, UniProt Q86Z14)
T1 sequence (Q86Z14 1-1044): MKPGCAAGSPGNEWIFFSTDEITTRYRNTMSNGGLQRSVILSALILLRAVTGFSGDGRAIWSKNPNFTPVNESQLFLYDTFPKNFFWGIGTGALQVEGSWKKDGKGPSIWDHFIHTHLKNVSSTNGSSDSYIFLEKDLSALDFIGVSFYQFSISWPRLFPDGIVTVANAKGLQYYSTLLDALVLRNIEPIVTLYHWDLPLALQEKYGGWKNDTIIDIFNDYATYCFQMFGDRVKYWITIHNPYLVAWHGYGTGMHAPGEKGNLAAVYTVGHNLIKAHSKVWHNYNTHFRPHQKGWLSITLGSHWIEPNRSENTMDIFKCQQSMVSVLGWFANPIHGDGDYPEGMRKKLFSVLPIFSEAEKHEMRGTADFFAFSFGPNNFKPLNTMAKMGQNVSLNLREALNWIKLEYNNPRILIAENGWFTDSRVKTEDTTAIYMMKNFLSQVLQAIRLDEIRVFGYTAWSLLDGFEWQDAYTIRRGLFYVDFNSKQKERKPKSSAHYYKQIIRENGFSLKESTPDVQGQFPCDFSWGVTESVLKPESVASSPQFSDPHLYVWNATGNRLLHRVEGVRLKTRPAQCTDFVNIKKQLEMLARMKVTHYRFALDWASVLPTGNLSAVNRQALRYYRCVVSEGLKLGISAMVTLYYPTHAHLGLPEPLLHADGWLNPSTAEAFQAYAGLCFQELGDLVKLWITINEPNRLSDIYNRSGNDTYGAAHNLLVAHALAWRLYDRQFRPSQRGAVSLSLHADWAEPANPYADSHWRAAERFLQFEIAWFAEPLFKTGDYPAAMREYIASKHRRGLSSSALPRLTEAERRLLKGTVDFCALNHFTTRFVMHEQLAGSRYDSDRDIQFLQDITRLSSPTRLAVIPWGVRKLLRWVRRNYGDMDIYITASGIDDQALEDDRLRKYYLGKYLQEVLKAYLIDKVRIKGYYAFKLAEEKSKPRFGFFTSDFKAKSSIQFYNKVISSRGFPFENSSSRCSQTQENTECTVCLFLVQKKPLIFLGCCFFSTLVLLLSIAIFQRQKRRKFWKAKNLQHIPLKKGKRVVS

B1: Ab0370: IgG4 PE; 16H7 VL (Y48del, W90H); 16H7 VH (M34V, H52W, I83T, D109E) (antibody)
VH: QVTLKESGPVLVKPTETLTLTCTVSGFSLNNARVGVSWIRQPPGKALEWLAWIFSNDEKSYSTSLKSRLTISKDTSKSQVVLTMTNMDPVDTATYYCARSVVTGGYYYEGMDVWGQGTTVTVSS
light: SYVLTQPPSVSVAPGQTARITCGGNNIGSESVHWYQQKPGQAPVLVVDDSDRPSGIPERFSGSNSGNTATLTISRVEAGDEADYYCQVHDGNSDHVVFGGGTKLTVLGQPKANPTVTLFPPSSEELQANKATLVCLISDFYPGAVTVAWKADGSPVKAGVETTKPSKQSNNKYAASSYLSLTPEQWKSHRSYSCQVTHEGSTVEKTVAPTECS
B2: Ab0316: IgG4 PE; 16H7 VL (N25S, D49Y, D91T, N93E); 16H7 VH (M34V, I83T, D109E) (antibody)
VH: B1 VH with W52H
light: SYVLTQPPSVSVAPGQTARITCGGSNIGSESVHWYQQKPGQAPVLVVYYDSDRPSGIPERFSGSNSGNTATLTISRVEAGDEADYYCQVWTGESDHVVFGGGTKLTVLGQPKANPTVTLFPPSSEELQANKATLVCLISDFYPGAVTVAWKADGSPVKAGVETTKPSKQSNNKYAASSYLSLTPEQWKSHRSYSCQVTHEGSTVEKTVAPTECS
B3: Ab0362: IgG4 PE; 16H7 VL (N25S, D49T, D50E, D91A, N93S); 16H7 VH (M34V, I83T, D109E) (antibody)
VH: B1 VH with W52H
light: B2 light with Y49T, D50E, T91A, E93S
B4: Ab0314: IgG4 PE; 16H7 VL (N25S, D91T, N93E); 16H7 VH (M34V, I83T, D109E) (antibody)
VH: B1 VH with W52H
light: B2 light with Y49D
B5: Ab0305: IgG4 PE; 16H7 VL (N25S, D49Y, D50E, D91T); 16H7 VH (M34V, I83T, D109E) (antibody)
VH: B1 VH with W52H
light: B2 light with D50E, E93N
B6: Ab0303: IgG4 PE; 16H7 VL (N25S, D50E, D91T); 16H7 VH (M34V, I83T, D109E) (antibody)
VH: B1 VH with W52H
light: B2 light with Y49D, D50E, E93N
B7: Ab0308: IgG4 PE; 16H7 VL (N25S, D49Y, N93E); 16H7 VH (M34V, I83T, D109E) (antibody)
VH: B1 VH with W52H
light: B2 light with T91D
B8: Ab0310: IgG4 PE; 16H7 VL (N25S, D50E, N93E); 16H7 VH (M34V, I83T, D109E) (antibody)
VH: B1 VH with W52H
light: B2 light with Y49D, D50E, T91D
B9: Ab0315: IgG4 PE; 16H7 VL (D49Y, D91T, N93E); 16H7 VH (M34V, I83T, D109E) (antibody)
VH: B1 VH with W52H
light: B2 light with S25N
B10: Ab0318: IgG4 PE; 16H7 VL (N25S, D50E, D91T, N93E); 16H7 VH (M34V, I83T, D109E) (antibody)
VH: B1 VH with W52H
light: B2 light with Y49D, D50E
B11: Ab0364: IgG4 PE; 16H7 VL (N25A, D49E, D50E, D91E, N93S); 16H7 VH (M34V, I83T, D109E) (antibody)
VH: B1 VH with W52H
light: B2 light with S25A, Y49E, D50E, T91E, E93S
B12: Ab0311: IgG4 PE; 16H7 VL (D49Y, D50E, N93E); 16H7 VH (M34V, I83T, D109E) (antibody)
VH: B1 VH with W52H
light: B2 light with S25N, D50E, T91D
B13: Ab0304: IgG4 PE; 16H7 VL (D49Y, D50E, D91T); 16H7 VH (M34V, I83T, D109E) (antibody)
VH: B1 VH with W52H
light: B2 light with S25N, D50E, E93N
B14: Ab0375: IgG4 PE; 16H7 VL (Y48del, D95E, W90F, S1C, S94C); 16H7 VH (M34V, F54W, I83T, D109E) (antibody)
VH: B1 VH with W52H, F54W
light: B1 light with S1C, H89F, S93C, D94E
B15: Ab0363: IgG4 PE; 16H7 VL (N25A, D49S, D50A, D91A, N93A); 16H7 VH (M34V, I83T, D109E) (antibody)
VH: B1 VH with W52H
light: B2 light with S25A, Y49S, D50A, T91A, E93A
B16: Ab0365: IgG4 PE; 16H7 VL (N25A, D49T, D50E, D91A, N93S); 16H7 VH (M34V, I83T, D109E) (antibody)
VH: B1 VH with W52H
light: B2 light with S25A, Y49T, D50E, T91A, E93S
B17: Ab0317: IgG4 PE; 16H7 VL (D50E, D91T, N93E); 16H7 VH (M34V, I83T, D109E) (antibody)
VH: B1 VH with W52H
light: B2 light with S25N, Y49D, D50E
B18: Ab0301: IgG4 PE; 16H7 VL (N25S, D49Y, D91T); 16H7 VH (M34V, I83T, D109E) (antibody)
VH: B1 VH with W52H
light: B2 light with E93N

For one data set, the target named is T2, FGFR1c and co-receptor beta-Klotho (KLB) (Homo sapiens, UniProt P11362+Q86Z14).
T2 construct: host or cells: iLite FGF21 Assay Ready Cells (HEK293)
T2 sequence (P11362 22-820 isoform P11362-2 limits assumed, one chain of several): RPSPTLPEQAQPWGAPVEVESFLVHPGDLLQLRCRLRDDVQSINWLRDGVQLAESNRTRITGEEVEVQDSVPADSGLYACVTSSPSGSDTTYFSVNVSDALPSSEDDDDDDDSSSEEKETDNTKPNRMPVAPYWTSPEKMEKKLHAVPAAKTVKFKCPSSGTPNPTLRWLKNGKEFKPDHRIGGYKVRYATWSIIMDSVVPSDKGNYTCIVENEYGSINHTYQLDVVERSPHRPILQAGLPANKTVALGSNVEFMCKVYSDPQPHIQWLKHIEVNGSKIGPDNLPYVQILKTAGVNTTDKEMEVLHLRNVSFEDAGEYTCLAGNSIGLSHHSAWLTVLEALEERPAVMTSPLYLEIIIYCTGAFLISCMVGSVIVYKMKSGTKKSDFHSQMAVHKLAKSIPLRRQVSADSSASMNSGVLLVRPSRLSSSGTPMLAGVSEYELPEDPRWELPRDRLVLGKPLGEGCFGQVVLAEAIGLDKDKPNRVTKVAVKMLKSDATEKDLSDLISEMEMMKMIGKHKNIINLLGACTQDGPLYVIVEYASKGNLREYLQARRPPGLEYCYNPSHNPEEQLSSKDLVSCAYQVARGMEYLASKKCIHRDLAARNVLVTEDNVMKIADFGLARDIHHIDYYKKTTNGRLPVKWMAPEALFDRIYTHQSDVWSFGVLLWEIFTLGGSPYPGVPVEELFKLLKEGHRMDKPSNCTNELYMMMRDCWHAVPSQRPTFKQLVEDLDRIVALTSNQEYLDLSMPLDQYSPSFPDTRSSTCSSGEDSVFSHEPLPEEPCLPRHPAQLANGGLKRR
Kind of data set: Luciferase reporter gene assay (iLite FGF21 Assay Ready Cells), FGF21-like signaling. The following applies: Luciferase gene reporter assay, mean, n=3-7. The data set is classed as cell-based.
With B1, the “HEK293 hFGFR1c + KLB (iLite) Emax” value is 490.05%.

The target in the next data set is T1, human beta-Klotho. In words: SPR off-rate screening of antibody mutants (human beta-Klotho captured by anti-His antibody). The note with it: mean, n=3. The data set is classed as binding. The method, boiled down: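 His-tagged beta-Klotho was captured via an anti-His antibody amine-coupled to a CM5 chip, and antibody mutants were injected as analytes at 50 nmol/L. Association ran 240 sec, dissociation 300 sec; off-rates (kd) came from single exponential fitting.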
Consider B2, for which the “koff human KLB” value was “invalid fit”.
Regarding B3, the “koff human KLB” value is listed as “invalid fit”.
Same read-out and setting: as for B4, the figure is 0.000402 s⁻¹; as for B5, “invalid fit”; as for B6, “invalid fit”.
The same measure, in the same setting: as for B7, the figure is 0.0013 s⁻¹.
The same measure, in the same setting: in the case of B8 it was 0.00116 s⁻¹.
In the case of B9, the “koff human KLB” value was “invalid fit”.
The same measure, in the same setting: in the case of B10 it was “invalid fit”.
The same measure, in the same setting: in the case of B11 it was 0.00169 s⁻¹; in that of B12, 0.0013 s⁻¹; in that of B13, “invalid fit”.
On the same count and under the same terms, in the case of B14 it was “no binding”.
In the case of B15, the “koff human KLB” value was “invalid fit”.
Same read-out and setting: in the case of B16 it was “invalid fit”.
On the same count and under the same terms, in the case of B17 it was “invalid fit”; in that of B18, “invalid fit”.

Test system in another data set: not listed separately
Kind of data set: In vivo PK in transgenic humanized FcRn mice (Tg32). The note with it: 0.3 mg/kg single IV, plasma, noncompartmental analysis. The method, then:
In vivo PK studies were conducted in transgenic humanized FcRn mice (Tg32). For these studies, no GLP compliance was claimed.
Turning to B4, the t½ amounted to 18 days.
